What was measured:
Assay in all cases: reconstitution and co-purification by ion-exchange chromatography; Rad50^NBD mixed with a slight excess of Mre11^HLH, heated at 60 °C for 10 min, cooled, complex purified on a HiTrap SP HP column; complex then used for methyl-TROSY NMR at 50 °C
Settings in all cases: both partners purified
[1] = target: T1, P. furiosus Rad50^NBD (V156M) (P. furiosus, UniProt P58301 1-195; P58301 709-882, V156M)
T1 construct: Rad50, Pyrococcus furiosus, N-terminal ABC-ATPase sub-domain, residues 1-195; flexible linker that replaces the coiled-coil and Zn-hook; Rad50, Pyrococcus furiosus, C-terminal ABC-ATPase sub-domain, residues 709-882; Point mutation made by Quikchange in the Rad50^NBD construct; source: E. coli BL21(DE3) C41, purified (HisTrap, HiTrap SP, Superdex 200)
T1 sequence (P58301 other isoform, or with tags, fused parts or gaps V156M | V156M | V156M V156M): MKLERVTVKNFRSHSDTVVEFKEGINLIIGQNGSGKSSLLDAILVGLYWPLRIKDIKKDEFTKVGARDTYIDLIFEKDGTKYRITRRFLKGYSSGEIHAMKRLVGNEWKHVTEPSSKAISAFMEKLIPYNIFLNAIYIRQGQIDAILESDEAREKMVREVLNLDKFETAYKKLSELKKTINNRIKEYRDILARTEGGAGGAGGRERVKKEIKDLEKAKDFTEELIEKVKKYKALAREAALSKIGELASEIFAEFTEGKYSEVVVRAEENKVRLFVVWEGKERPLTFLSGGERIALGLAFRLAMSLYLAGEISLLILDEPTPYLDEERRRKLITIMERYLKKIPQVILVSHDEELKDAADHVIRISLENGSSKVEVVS

[2] = target: T2, P. furiosus Rad50^NBD (V157M) (P. furiosus, UniProt P58301 1-195; P58301 709-882, V157M)
T2 construct: Rad50, Pyrococcus furiosus, N-terminal ABC-ATPase sub-domain, residues 1-195; flexible linker that replaces the coiled-coil and Zn-hook; Rad50, Pyrococcus furiosus, C-terminal ABC-ATPase sub-domain, residues 709-882; Point mutation made by Quikchange in the Rad50^NBD construct; source: E. coli BL21(DE3) C41, purified (HisTrap, HiTrap SP, Superdex 200)
T2 sequence (P58301 other isoform, or with tags, fused parts or gaps V157M | V157M | V157M V157M): as the sequence (P58301 other isoform, or with tags, fused parts or gaps V156M | V156M | V156M V156M) above, with M156V, V157M counted along it

[3] = target: T3, P. furiosus Rad50^NBD (V160M) (P. furiosus, UniProt P58301 1-195; P58301 709-882, V160M)
T3 construct: Rad50, Pyrococcus furiosus, N-terminal ABC-ATPase sub-domain, residues 1-195; flexible linker that replaces the coiled-coil and Zn-hook; Rad50, Pyrococcus furiosus, C-terminal ABC-ATPase sub-domain, residues 709-882; Point mutation made by Quikchange in the Rad50^NBD construct; source: E. coli BL21(DE3) C41, purified (HisTrap, HiTrap SP, Superdex 200)
T3 sequence (P58301 other isoform, or with tags, fused parts or gaps V160M | V160M | V160M V160M): as the sequence (P58301 other isoform, or with tags, fused parts or gaps V156M | V156M | V156M V156M) above, with M156V, V160M counted along it

[4] = target: T4, P. furiosus Rad50^NBD (R805E) (P. furiosus, UniProt P58301 1-195; P58301 709-882, R805E)
T4 construct: Rad50, Pyrococcus furiosus, N-terminal ABC-ATPase sub-domain, residues 1-195; flexible linker that replaces the coiled-coil and Zn-hook; Rad50, Pyrococcus furiosus, C-terminal ABC-ATPase sub-domain, residues 709-882; Point mutation made by Quikchange in the Rad50^NBD construct; also called basic switch mutant; source: E. coli BL21(DE3) C41, purified (HisTrap, HiTrap SP, Superdex 200)
T4 sequence (P58301 other isoform, or with tags, fused parts or gaps R805E | R805E | R805E R805E): as the sequence (P58301 other isoform, or with tags, fused parts or gaps V156M | V156M | V156M V156M) above, with M156V, R300E counted along it

Measured: binding result

B1: P. furiosus Mre11 helix-loop-helix domain (Mre11^HLH, aa344-426) (domain or fragment)
chain: not shown
notes: Mre11, Pyrococcus furiosus, helix-loop-helix domain, residues 344-426, sub-cloned from codon optimized full-length Pf Mre11; Protonated (unlabelled) in the NMR samples; source: E. coli BL21(DE3) C41, purified (HisTrap, HiTrap Phenyl HP); not shown: NusA, N-terminal, cleaved; His6, N-terminal, cleaved
binds: [1] | [2] | [3] | [4]

Source: article PMC5786021, “A dynamic allosteric pathway underlies Rad50 ABC ATPase function in DNA repair” (Scientific Reports, 2018)
